Measurements: patent publication US20050153395A1, “Unique integrin binding site in connective tissue growth factor (CTGF)” (CHILDREN'S HOSPITAL INC., priority 2003, published 2005)

What was measured:
[1] = target: integrin αvβ3 on activated rat hepatic stellate cells (HSC) (rat) (UniProt Q8R2H2); assay: cell-based or functional assay
[2] = target: integrin αvβ3 (purified, human) (human) (UniProt P06756); assay: solid phase ELISA, coated ligand, purified αvβ3 (1 µg/ml)
Chain of integrin αvβ3 (purified, human) (human) (P06756 31-1048, form in doubt, chain 1 of 2): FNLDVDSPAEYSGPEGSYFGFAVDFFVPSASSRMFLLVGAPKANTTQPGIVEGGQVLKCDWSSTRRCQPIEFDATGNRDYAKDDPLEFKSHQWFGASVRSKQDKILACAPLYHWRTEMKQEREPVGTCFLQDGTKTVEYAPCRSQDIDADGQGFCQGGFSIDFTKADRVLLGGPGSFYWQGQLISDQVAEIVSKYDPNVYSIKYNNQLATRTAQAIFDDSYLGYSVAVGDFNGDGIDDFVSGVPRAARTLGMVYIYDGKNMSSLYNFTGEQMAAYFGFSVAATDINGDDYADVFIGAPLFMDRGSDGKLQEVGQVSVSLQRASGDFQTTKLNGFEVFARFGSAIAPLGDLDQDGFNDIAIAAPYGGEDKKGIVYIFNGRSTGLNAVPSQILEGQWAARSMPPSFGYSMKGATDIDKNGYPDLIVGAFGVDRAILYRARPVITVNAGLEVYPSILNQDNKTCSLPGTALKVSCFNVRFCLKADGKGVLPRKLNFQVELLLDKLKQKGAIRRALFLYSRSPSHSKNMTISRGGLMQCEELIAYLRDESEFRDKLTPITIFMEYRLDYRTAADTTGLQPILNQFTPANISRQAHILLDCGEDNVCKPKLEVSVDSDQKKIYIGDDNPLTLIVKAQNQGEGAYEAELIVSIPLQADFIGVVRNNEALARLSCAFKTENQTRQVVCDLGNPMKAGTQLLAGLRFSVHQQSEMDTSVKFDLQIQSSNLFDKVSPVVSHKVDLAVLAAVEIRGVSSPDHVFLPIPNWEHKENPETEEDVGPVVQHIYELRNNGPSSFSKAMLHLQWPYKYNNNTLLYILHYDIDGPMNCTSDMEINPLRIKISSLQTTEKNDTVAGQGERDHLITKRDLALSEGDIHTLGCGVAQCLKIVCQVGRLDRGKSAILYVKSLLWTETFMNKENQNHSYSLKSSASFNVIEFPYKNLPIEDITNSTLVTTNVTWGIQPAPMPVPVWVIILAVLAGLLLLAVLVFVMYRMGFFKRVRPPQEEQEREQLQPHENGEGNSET
Chain of integrin αvβ3 (purified, human) (human) (P05106 27-788, form in doubt, chain 2 of 2, further chain): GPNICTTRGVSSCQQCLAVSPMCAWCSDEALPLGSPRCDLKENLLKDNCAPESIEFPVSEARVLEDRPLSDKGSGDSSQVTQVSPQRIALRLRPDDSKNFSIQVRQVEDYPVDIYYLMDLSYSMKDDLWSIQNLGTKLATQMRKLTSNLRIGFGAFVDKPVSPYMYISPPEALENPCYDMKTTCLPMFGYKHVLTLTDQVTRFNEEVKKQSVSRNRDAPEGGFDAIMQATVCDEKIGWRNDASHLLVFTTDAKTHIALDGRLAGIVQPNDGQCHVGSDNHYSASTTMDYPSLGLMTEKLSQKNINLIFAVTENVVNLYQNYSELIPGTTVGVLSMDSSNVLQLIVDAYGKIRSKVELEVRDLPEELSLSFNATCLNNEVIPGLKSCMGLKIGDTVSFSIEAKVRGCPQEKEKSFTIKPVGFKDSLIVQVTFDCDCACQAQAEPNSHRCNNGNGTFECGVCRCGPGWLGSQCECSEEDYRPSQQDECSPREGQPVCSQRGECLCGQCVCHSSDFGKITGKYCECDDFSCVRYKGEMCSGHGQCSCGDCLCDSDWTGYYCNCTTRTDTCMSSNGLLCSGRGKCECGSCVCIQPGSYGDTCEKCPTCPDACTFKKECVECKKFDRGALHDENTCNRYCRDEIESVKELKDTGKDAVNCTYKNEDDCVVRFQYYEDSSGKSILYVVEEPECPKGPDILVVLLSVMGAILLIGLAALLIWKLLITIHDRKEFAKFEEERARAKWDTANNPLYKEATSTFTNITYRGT

Chain of integrin αvβ3 on activated rat hepatic stellate cells (HSC) (rat) (Q8R2H2 26-787): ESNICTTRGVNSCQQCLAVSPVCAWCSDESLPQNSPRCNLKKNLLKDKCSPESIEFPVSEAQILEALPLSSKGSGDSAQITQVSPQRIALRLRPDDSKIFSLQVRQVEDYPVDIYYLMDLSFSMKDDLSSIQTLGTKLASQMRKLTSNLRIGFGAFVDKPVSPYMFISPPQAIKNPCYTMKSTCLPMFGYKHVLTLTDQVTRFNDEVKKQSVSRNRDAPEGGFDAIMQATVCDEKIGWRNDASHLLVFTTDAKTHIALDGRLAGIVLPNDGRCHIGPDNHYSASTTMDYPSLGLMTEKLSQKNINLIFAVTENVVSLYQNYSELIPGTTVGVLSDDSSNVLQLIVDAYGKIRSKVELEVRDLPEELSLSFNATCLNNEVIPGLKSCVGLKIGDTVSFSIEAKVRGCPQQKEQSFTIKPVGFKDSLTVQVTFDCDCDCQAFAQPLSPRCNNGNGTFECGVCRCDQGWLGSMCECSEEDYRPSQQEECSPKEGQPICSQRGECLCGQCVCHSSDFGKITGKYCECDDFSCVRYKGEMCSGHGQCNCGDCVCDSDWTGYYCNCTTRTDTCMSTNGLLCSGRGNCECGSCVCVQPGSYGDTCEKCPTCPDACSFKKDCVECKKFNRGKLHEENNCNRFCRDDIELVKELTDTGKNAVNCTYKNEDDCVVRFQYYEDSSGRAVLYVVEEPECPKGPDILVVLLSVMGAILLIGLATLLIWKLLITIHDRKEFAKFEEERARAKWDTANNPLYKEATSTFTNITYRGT

vitronectin (ligand) gave a decrease in HSC binding to vitronectin by RGD peptides (GRGDsp, Echistatin) [1] of 100% and a coating concentration at saturation of binding [2] of 4 µg/mL.
